Measured values from publication doi:10.1101/332015 (bioRxiv, 2018).

T1: ARC_(207-277) (human, UniProt Q7LC44 207-277)
T1 sequence (looked up): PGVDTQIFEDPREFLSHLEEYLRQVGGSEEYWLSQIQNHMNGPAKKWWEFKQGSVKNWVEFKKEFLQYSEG

T2: ARC_(131-396) (human, UniProt Q7LC44 131-396)
T2 sequence (looked up): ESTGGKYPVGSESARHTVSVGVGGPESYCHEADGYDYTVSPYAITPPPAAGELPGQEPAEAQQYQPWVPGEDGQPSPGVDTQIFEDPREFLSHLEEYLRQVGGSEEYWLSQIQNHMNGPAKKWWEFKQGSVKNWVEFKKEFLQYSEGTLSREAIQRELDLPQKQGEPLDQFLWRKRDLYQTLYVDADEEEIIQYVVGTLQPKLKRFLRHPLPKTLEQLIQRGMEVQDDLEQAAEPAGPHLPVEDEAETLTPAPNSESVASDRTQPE

T3: ARC_(206-396) (human, UniProt Q7LC44 206-396)
T3 sequence (looked up): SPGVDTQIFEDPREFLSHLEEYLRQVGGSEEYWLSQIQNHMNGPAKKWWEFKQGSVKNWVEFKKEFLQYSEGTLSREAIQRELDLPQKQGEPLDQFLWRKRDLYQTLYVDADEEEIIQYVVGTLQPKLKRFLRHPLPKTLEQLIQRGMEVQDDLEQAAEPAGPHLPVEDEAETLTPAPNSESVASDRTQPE

T4: ARC_(170-396) (human, UniProt Q7LC44 170-396)
T4 sequence (looked up): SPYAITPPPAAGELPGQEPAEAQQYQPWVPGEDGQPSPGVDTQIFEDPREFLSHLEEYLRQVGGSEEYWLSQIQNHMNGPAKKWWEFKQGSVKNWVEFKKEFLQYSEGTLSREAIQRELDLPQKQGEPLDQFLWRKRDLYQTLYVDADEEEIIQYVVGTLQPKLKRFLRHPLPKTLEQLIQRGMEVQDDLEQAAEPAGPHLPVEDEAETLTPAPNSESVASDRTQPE

T5: ARC_(206-361) (human, UniProt Q7LC44 206-361)
T5 sequence (looked up): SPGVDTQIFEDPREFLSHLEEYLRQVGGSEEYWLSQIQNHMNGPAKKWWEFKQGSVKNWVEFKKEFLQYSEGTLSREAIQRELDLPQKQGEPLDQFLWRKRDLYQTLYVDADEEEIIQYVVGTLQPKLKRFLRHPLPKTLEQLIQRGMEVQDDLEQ


Assays:
[1] = molecular target: full-length human ARC (ARC_(1-396)) (human) (UniProt Q7LC44); experiment: SEC-MALS
ARC_(207-277) [2] = molecular target: T1, ARC_(207-277); experiment: SAXS
ARC_(131-396) = molecular target: T2, ARC_(131-396); experiment: SAXS
ARC_(206-396) = molecular target: T3, ARC_(206-396); experiment: SAXS
ARC_(170-396) = molecular target: T4, ARC_(170-396); experiment: SAXS
ARC_(206-361) = molecular target: T5, ARC_(206-361); experiment: SAXS
ARC_(207-277) [3] = molecular target: T1, ARC_(207-277); experiment: synchrotron radiation circular dichroism

Row | Molecule | stoichiometry N [1] | binding result (ARC_(207-277) [2]) | binding result (ARC_(131-396)) | binding result (ARC_(206-396)) | binding result (ARC_(170-396)) | binding result (ARC_(206-361)) | binding result (ARC_(207-277) [3])
1 | Ac-RIPSYRYR-NH2 [Stargazin peptide (RIPSYRYR)] |  |  | binds | binds | binds | binds | binds
2 | Ac-RTPVFVSP-NH2 [WAVE1 peptide (RTPVFVSP)] |  | binds | binds | binds | binds | binds | 

Now from value to molecule:

Row | stoichiometry N [1] | binding result (ARC_(207-277) [2]) | binding result (ARC_(131-396)) | binding result (ARC_(206-396)) | binding result (ARC_(170-396)) | binding result (ARC_(206-361)) | binding result (ARC_(207-277) [3]) | Molecule
3 | 2 |  |  |  |  |  |  | full-length human ARC (ARC_(1-396)) (from UniProt Q7LC44 1-396) (natural protein)
4 |  | binds | binds | binds | binds | binds |  | Ac-TSPKFRSR-NH2 [GKAP peptide (TSPKFRSR)]
